# Data reported in patent US20140056907A1 (Regeneron, published 2014).
# Where a chain is given by its changes, count along the chain named. In names and notes the source's numbering stands.
# T1: human ASIC1 (human, UniProt P78348 1-528)
# T1 sequence: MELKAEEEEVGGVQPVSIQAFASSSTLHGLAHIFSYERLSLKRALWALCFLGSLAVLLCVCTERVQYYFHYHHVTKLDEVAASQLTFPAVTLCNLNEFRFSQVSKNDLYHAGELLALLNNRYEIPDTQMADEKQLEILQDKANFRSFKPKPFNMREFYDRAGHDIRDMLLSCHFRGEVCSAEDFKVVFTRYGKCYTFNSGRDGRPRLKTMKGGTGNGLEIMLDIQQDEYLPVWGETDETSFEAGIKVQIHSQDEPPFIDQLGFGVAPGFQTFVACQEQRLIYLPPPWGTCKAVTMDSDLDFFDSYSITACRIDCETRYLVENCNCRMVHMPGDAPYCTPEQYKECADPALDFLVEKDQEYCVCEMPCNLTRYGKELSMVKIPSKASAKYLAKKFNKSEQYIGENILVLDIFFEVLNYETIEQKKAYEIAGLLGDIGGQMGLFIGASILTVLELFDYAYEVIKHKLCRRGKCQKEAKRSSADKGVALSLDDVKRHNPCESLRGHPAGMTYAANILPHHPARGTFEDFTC
# T2: mouse ASIC1a (mouse, UniProt Q6NXK8 1-526)
# T2 sequence (looked up): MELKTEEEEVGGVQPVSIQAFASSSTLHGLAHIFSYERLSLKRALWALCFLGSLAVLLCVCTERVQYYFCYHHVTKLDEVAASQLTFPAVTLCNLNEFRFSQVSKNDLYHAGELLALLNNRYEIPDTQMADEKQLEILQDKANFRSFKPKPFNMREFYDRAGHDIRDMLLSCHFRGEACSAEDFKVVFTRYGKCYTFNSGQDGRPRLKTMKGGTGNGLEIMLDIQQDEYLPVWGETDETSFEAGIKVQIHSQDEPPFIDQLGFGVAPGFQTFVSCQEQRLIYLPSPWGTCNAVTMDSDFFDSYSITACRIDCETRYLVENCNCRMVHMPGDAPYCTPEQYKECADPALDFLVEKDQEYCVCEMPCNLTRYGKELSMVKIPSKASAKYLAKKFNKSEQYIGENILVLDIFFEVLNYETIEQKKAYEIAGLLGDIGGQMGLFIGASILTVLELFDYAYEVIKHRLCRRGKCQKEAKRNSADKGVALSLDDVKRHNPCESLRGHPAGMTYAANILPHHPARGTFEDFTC
# T3: human ASIC3 (human, UniProt Q9UHC3 1-531)
# T3 construct: whole, on cells; Expressed on 3T3 cells (3T3/hASIC3) or HEK293 cells (HEK/hASIC3-QCells); also called hASIC3
# T3 sequence (looked up): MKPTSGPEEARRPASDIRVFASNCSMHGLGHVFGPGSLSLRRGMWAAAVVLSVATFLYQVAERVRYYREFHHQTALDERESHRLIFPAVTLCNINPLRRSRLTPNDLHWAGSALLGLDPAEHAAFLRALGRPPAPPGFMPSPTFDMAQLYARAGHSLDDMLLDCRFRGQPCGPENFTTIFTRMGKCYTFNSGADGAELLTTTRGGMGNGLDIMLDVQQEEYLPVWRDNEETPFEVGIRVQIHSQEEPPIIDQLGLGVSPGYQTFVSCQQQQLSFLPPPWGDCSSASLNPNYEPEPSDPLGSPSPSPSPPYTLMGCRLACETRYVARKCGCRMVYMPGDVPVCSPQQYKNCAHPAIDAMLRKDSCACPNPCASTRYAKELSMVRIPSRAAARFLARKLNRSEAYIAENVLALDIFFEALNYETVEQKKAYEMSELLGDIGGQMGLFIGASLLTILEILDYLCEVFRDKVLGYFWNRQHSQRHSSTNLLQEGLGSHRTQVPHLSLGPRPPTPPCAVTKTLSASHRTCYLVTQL
# T4: human ASIC1/ASIC3 channels (co-expressed human ASIC1a and human ASIC3) (human, UniProt Q9UHC3 1-531)
# T4 construct: whole, on cells; 3T3 cells co-expressing both subunits; also called 3T3/hASIC1/3; 3T3-hASIC1/ASIC3
# T4 sequence 1: T1 sequence
# T4 sequence 2: T3 sequence (looked up)
# B1: H3M7118N (antibody, V domains shown)
# VH: EVQLLESGGGLVQPGGSLRLSCAASGFTFRNYAMSWVRQAPGKGLEWVSAINGGGDSTYYADSVKGRFTISRDNSKNTLYLQMNSLRAEDTAVYYCAKEEGDWNYVGYGYYYYYGMDVWGQGTTVTVSS
# VL: DIQMTQSPSSMSASVGDRVTITCRASQGISSWLAWYQQKPGKAPKLLIYAASSLQSGVPSRFSGSGSGTDFTLTIRSLQPEDFATYYCQQANSFPYTFGQGTKLEIK
# notes: Chimeric: human variable, mouse constant domains; H3M prefix marks the Fc, isotype not spelled out
# B2: H4H6721N2 (antibody, human IgG4, V domains shown)
# VH: EVQLLASGGGLVQPGGSLRLSCAASGFTFSSFAMSWVRQAPGKGLEWVSGISGSGVSTYYADSVKGRFTISRDNSKNTLYLQMNSLRAEDTAAYYCAKEAYKWQPWGQGTLVTVSS
# VL: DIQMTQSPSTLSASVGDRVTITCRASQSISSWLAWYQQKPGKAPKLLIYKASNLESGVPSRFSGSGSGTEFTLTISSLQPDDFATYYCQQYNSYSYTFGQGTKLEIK
# B3: H4H7101N (antibody, human IgG4, V domains shown)
# VH: B2 VH with P14T, V56G, T110I, L111R
# VL: DIQMTQSPSTLSASVGDRVTITCRASQSISSWLAWYQQKPGKAPNLLIYKTSNLESGVPSRFSGSGSGTEFTLTISSLQPDDFATYYCQQYNSYSYTFGQGTKLEIK
# B4: H3M6715N (antibody, V domains shown)
# VH: EELVLESGGGLVQPGGSLRLSCAASGFMFSTYAMSWVRQAPGKGLEWVSLISGRDGNTYYADSVKGRFTISRDNSRNTLYLQLNSLRAEDTALYYCAKDTAVVPGYGMDVWGQGTTVTVSS
# VL: DIQMTQSPATLSASVGDRVTITCRASQTISNWLAWYQQRPGKAPKLLIYKASSLETGVPSRFSGSGSGTEFTLTISSLQPDDFASYYCQQYNSYSWTFGQGTKVEIK
# notes: as for B1
# B5: H3M6713N (antibody, V domains shown)
# VH: B4 VH with N57S, N74I, Q82H, L93V, M108L
# VL: B4 VL
# notes: as for B1
# B6: H3M6760N (antibody, V domains shown)
# VH: B4 VH with E2D, L3R, T31S, L93V
# VL: B4 VL with A9S, T28S, T56S
# notes: as for B1
# B7: H1M6712N (antibody, mouse IgG1, V domains shown)
# VH: QVQLVQSGAEVKKPGASMKVSCKASGYTFTIYDINWVRQATGQGLEWMGWMNPRSGSTGYSQKFQGRVTMTRNTSINTAFMELSSLRSDDTAVYYCVRGQLVLGYWGQGTLVTVSS
# VL: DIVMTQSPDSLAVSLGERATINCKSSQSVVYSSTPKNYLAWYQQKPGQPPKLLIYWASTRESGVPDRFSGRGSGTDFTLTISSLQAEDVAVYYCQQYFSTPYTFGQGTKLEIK
# B8: H4H6364P (antibody, human IgG4, V domains shown)
# VH: EVQLVESGGGLVQSGGSLRLSCAASGFTFSRYWMSWVRQAPGKGLEWVANIKQDGSEKDYVDSVKGRFTISRDNTKSSLFLQMNSLRAEDTAVYYCAKERWNWNFFDYWGQGTLVTVSS
# VL: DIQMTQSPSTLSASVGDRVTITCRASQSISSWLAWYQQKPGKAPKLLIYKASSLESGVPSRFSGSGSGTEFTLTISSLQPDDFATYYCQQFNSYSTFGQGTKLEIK
# Target: T1, human ASIC1
# Assay: cell-based or functional assay
row,"apparent IC50, human ASIC1 current, Q-Patch [nM]",Binder
1,≤ 10,B1
2,< 1,B2

# Target: T2, mouse ASIC1a
# Assay: cell-based or functional assay
row,"apparent IC50, mouse ASIC1 current, Q-Patch [nM]",Binder
1,< 25,B1

# Target: T3, human ASIC3
# Assay: FACS, 3T3/hASIC3 cells
# Description: (§1) For these experiments, four cell lines were constructed: (a) a mouse fibroblast 3T3 cell line stably transfected to overexpress full length human ASIC3 (3T3/hASIC3; amino acids 1-531 of NCBI accession number NP_{—}004760.1), (b) a 3T3 cell line stably transfected to co-express full length human ASIC1a and human ASIC3 (3T3/hASIC1/3; amino acids 1-528 of NCBI accession number NP_{—}001086.2 and amino acids 1-531 of NCBI accession number NP_{—}004760.1), (c) […] a stably transfected 3T3 cell line expressing the full-length mouse ASIC3 channel (3T3/mASIC3; amino acids 1-530 of NCBI accession number NP_{—}892045.2), and (d) a 3T3 cell line stably transfected to co-express full length mouse ASIC1a and mouse ASIC3 (3T3/mASIC1/3; amino acids 1-526 of NCBI accession number NP_{—}033727 and amino acids 1-530 of NCBI accession number NP_{—}892045.2). Antibody binding was determined using flow cytometry (FACS).
# (§2) To perform the FACS binding experiments, adherent cells were collected with cold Millipore Accutase 3-5 minutes, spun and resuspended in ice-cold FACS buffer (PBS, 2% HI-FBS and 0.09% Na-azide). Anti-ASIC1 antibody at final concentrations of 10 nM was added for 20-30 minutes on ice. Cells were washed with 900 μL ice-cold FACS buffer, spun, and resuspended in 100 μL ice-cold FACS buffer. A secondary antibody which recognizes human Fc (Jackson Immuno Research, #109-136-098) and is conjugated to allophycocyanin, was then added to the cell mixture at a final concentration of 2.5 ug/mL. After incubating for 20 minutes on ice, the cells were washed and resuspended in FACS buffer, then sorted and analyzed on a flow cytometer (FACSCanto II, BD Biosciences, San Jose, Calif.) to determine relative binding by the candidate antibodies to the tested cell lines. Histograms of cells stained with anti-ASIC1 antibodies were compared with those of cells stained with secondary antibody alone. Percentage of ASIC1 signal over secondary antibody alone was calculated using FlowJo software (Tree Star, Ashland, Oreg.).
row,Binder,binding result
1,B2,no binding (tested: 10 nM; gated lower than 1%)
2,B3,no binding (tested: 10 nM; gated lower than 1%)
3,B4,no binding (tested: 10 nM; gated lower than 1%)
4,B5,no binding (tested: 10 nM; gated lower than 1%)
5,B6,no binding (tested: 10 nM; gated lower than 1%)

# Target: T1, human ASIC1
# Assay: cell-based or functional assay
# Remark: another data set of the same source
"FLIPR Dose Curve, pH 5.0 % Block [%]","FLIPR Dose Curve, pH 5.5 % Block [%]","FLIPR Dose Curve, pH 5.5 IC50 [nM]","FLIPR Dose Curve, pH 5.0 IC50 [nM]",Binder
10,39,0.1,–,B4
23,63,0.2,–,B5
56,71,0.9,1,B6
10,64,6,–,B7

# Target: T1, human ASIC1
# Assay: cell-based or functional assay
# Remark: another data set of the same source
row,"Current inhibition (%) at 100 nM antibody, Q-Patch, pH 6.0 [%]",Binder
1,0,B8
2,30,B4
3,0,B7

# Target: T1, human ASIC1
# Assay: FACS titration, 3T3/hASIC1 cells
# Experimental: To perform the FACS binding experiments, adherent cells were collected using 1 mM EDTA in PBS, then washed, and re-suspended in cold PBS containing 5% FBS. For each binding experiment, each anti-ASIC1 antibody ([…] or ND7 cells) was added to 250,000 cells in 500 μL of PBS with 5% FBS. After incubation for 20 minutes at room temperature, a secondary antibody which recognizes human Fc (Cat. No. 109-136-098, Jackson ImmunoResearch Laboratories, Inc., West Grove, Pa.) or mouse Fc (Cat. No. 550826, BD Biosciences, San Jose, Calif.) and is conjugated to allophycocyanin, was then added to the cell mixture at a final concentration of 13.3 nM. After incubating for 20 minutes on ice, the cells were washed and resuspended in PBS containing 5% FBS, then sorted and analyzed on a flow cytometer (FACSCalibur, BD Biosciences, San Jose, Calif.) to determine relative binding by the candidate antibodies to the tested cell lines. Histograms of cells stained with anti-ASIC1 antibodies were compared with those of cells stained with secondary antibody alone. Percentage of ASIC1 signal over secondary antibody alone was calculated using FlowJo software (Tree Star, Ashland, Oreg.).
row,EC50 [nM],Binder
1,> 67,B1
2,1.7,B2
3,1.5,B8
4,0.072,B4
5,0.215,B5
6,0.853,B6
7,< 0.1,B7

# Target: T3, human ASIC3
# Assay: FACS, 3T3/hASIC3 cells, 10 nM antibody
# Description: as §1, §2
row,binding result,Binder
1,binds,B8
2,binds,B7

# Target: T4, human ASIC1/ASIC3 channels …
# Assay: FACS, 3T3/hASIC1/3 cells, 10 nM antibody
# Description: as §1, §2
row,binding result,Binder
1,binds,B2
2,binds,B3
3,binds,B8
4,binds,B4
5,binds,B5
6,binds,B6
7,binds,B7
